Changes are numbered by the printed parent chain. Values belong to the binder of their own block, whether it stands above or below them.
What was measured:
[1] = molecular target: T1, canine PD-1 expressed on CHO cells (canine); test: CELISA on CHO cells expressing canine PD-1, mAb diluted from 30 ug/mL (x axis: log of dilution), HRP goat anti-mouse, TMB
T1 construct: CHO DXB11 cells transfected with plasmid p96793; also called cPD-1 CHO cells; CHO cell line expressing canine PD-1
T1 chain: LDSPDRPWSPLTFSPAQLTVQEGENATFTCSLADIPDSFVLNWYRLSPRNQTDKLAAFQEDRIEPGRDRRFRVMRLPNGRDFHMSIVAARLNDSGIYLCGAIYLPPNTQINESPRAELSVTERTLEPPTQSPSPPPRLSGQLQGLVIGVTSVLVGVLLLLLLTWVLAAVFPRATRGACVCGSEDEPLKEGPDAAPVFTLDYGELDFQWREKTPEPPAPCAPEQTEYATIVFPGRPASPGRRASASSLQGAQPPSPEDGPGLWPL

[2] = molecular target: T2, HIS-tagged extracellular domain of canine PD-1; test: ELISA on plate-coated HIS-tagged canine PD-1 ECD, two-fold dilutions of mAb, HRP goat anti-mouse IgG, TMB
T2 construct: also called canine PD-1 ECD-8HIS; PD-1ECD-HIS
T2 chain: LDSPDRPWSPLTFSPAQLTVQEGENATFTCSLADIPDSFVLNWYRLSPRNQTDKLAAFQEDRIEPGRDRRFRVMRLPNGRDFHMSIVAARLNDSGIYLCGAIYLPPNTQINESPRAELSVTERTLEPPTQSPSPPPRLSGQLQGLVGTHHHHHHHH
Experimental: Purified anti-canine PD-1 mAbs were tested for reactivity with the HIS-tagged ECD domain of canine PD-1 by ELISA as follows: HIS-tagged canine PD-1 ECD protein is diluted to 10 μg/mL in coating buffer (Carbonate/Bicarbonate pH 9.0) and dispensed at 100 μl/well in 96-well flat bottomed ELISA plates (NUNC). The plates are incubated at 4° C. overnight. The plates are then washed three times with phosphate buffered saline containing 0.05% Tween-20 (PBST). Next, 200 μl of blocking buffer (5% skim milk in PBST) is added to each well and the plates are incubated at 37° C. for 60 minutes. The plates are then washed three times with PBST. Next, 100 μl of test mAbs diluted in blocking buffer is added to the first wells of the appropriate columns. Test mAbs are then diluted two-fold to the appropriate plate position. Following incubation of the plates at 37° C. for 60 minutes, the plates are washed three times with PBST. Next, 100 μl per well of a 1:2,000 dilution of a horseradish peroxidase conjugated goat anti-mouse IgG (KPL) is added to the plates, which are then incubated at 37° C. for 60 minutes. Then the plates are washed three times with PBST, and 100 μl/well of 3,3′,5,5′ tetramethyl benzidine, (TMB) substrate (from KPL) is added to the plates. The color reaction is allowed to develop for 5-20 minutes at 37° C. prior to measuring absorbance at 650 nm.

[3] = molecular target: T1, canine PD-1 expressed on CHO cells; test: ligand blockade CELISA: mAb diluted from 30 ug/mL on CHO cells expressing canine PD-1, then cPD-L1-Fc-biotin, streptavidin-HRP; the signal is bound PD-L1
Experimental: (§1) A cell-based ELISA (CELISA) assay based on the CHO cell line expressing canine PD-1 was used for mouse mAbs which react with canine PD-1 (cPD-1). Ligand blockade was confirmed using this assay in conjunction with biotinylated cPD-L1/Fc protein. Briefly, seed cPD-1 CHO cells were placed in 96-well plates at 4×10⁴ cells per well and the cells were incubated at 37° C. for 18-24 hours till they are 95-100% confluent. The cell culture media was aspirated off, and the plates were washed 3× with PBS+0.05% Tween20 and 1×CHO media. Three-fold serial dilutions were made of anti-cPD1 mAbs in CHO media, starting at 30 μg/mL, and 50 μL/well of each antibody dilution were added down the plate. The incubation was performed at 37° C., 5% CO₂ with shaking for 30 min. 50 μL/well of cPD-L1-Fc-biotin (2 μg/ml in CHO media stock) was added and the incubation at 37° C., 5% CO₂ was continued with shaking for 45 min. The plates were washed 6 times with PBS+0.05% Tween 20. 100 ul/well of Streptavidin-HRP (1:2000) in CHO media was added followed by a incubation for 30-60 min at 37° C./5% CO₂. The plates were washed 5 times with PBS+0.05% Tween20 and then 100 μl/well of TMB color developing substrate was added. The color development was stopped by adding 50 μl/well of 1M phosphoric acid. The optical density (O.D.) at A450-A620 was measured using an ELISA plate reader.

[4] = molecular target: T1, canine PD-1 expressed on CHO cells; test: ligand blockade CELISA: mAb diluted from 54.8 µg/mL on CHO cells expressing canine PD-1, then cPD-L1-Fc-biotin, streptavidin-HRP; the signal is bound PD-L1
Experimental: as §1

[5] = molecular target: T1, canine PD-1 expressed on CHO cells; test: ligand blockade CELISA: mAb diluted from 23.2 µg/mL on CHO cells expressing canine PD-1, then cPD-L1-Fc-biotin, streptavidin-HRP; the signal is bound PD-L1
Experimental: as §1

[6] = molecular target: T3, canine PD-1 antigen peptide GRDRRFRVM*RLPNGR (SEQ ID NO: 84) (canine); test: ProImmune ProArray Ultra peptide microarray, fluorescent secondary antibody
T3 construct: The starred methionine has also been reported as a threonine
T3 peptide: GRDRRFRVMRLPNGR
Experimental: This library of overlapping peptides was designed to cover the full length canine PD-1 protein. The determination of peptide-antibody binding was performed by attachment of antibody samples to the ProArray Ultra® peptide microarray, followed by incubation with a fluorescent-labelled secondary antibody. All peptides are synthesized separately, and then bound to the ProArray Ultra® slide surface alongside ProImmune® murine IgG controls. This optimized process ensures that peptides are presented on the array in such a manner as to closely mimic the properties of the corresponding protein region, circumventing the inherent physiochemical variation of the free peptides themselves and making a compatible, combined peptide and protein array platform. […] After several washing steps, the ProArray Ultra® arrays were dried and scanned using a high-resolution fluorescence microarray scanning system. After scanning the fluorescent labelled ProArray Ultra® slides, the scanner recorded an image which was evaluated using image analysis software—enabling interpretation and quantification of the levels of fluorescent intensities associated with each fluorescent spot on the scanned microarray slide. The results of this experiment indicated some of the canine PD-1 peptides were recognized by some of the mAbs evaluated.

B1: mAb 1B5 (mouse anti-canine PD-1 monoclonal antibody) (antibody, V domains shown)
VH: QIQLVQSGPELKKPGETVKISCKASGYTFTTYGMSWVKQAPGKGLKWMGWINIYSGIPTYADDFKGRFAFSLETSASTAYLQIDNLKNEDTATYFCARFDGPDYWGQGTTLTVSP
VL: DIVMTQSPSSLAMSVGQKVTMSCKSSQSLLNSVNQKNYLAWYQQKPGQSPKVLVYFASTRVSGVPDRFIGSGSGTDFTLTITSVQAEDLTTYLCQQYFSTPLTFGAGTKLEIK
notes: Mouse mAb; also called IBS
binding result [1]: binds

B2: Murine 3B6 (mouse anti-canine PD-1 monoclonal antibody) (antibody, V domains shown)
VH: B1 VH with P115S
VL: B1 VL with M13V, Q17R, T59A, T80A, T82S, L93F, I112L
notes: Mouse hybridoma mAb; also called mAb 3B6
binding result [2]: binds | binding result [1]: binds

B3: 4D12 (antibody, V domains shown)
VH: B1 VH with I57M, A76V, D84N, P115S
VL: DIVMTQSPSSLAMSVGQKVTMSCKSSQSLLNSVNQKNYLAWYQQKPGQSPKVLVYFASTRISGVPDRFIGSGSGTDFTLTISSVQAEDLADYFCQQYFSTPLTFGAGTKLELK
notes: Mouse anti-canine PD-1 mAb; also called mAb 4D12; copies: 2 + 2
binding result [3]: binds | binding result [2]: binds

B5: 5G5 (antibody, V domains shown)
VH: EVQLQQSVAELVRPGASVKLSCTVSGFNIKNTYMHWVKQRPEQGLEWIGRIDPANVNTKYAPKFQGKATITTDTSSNTAYMQLSSLTSEDTAIYYCVLIFYDYDGDIDVWGTGTKVTVSS
VL: DIQMNQSPSSLSASLGDTITITCHASQNINVWLSWYQQKPGNIPKLLIYKASNLHTGVPSRFSGSGSGTDFTLTISSLQPEDIATYYCQQGQSYPLTFGAGTKLELK
notes: Mouse anti-canine PD-1 mAb; also called mAb 5G5; copies: 2 + 2
binding result [2]: binds

Now from value to binder:

binding result [4]: binds | binding result [2]: binds
B4: mAb 2G9 (mouse anti-canine PD-1 monoclonal antibody) (antibody, V domains shown)
VH: QAYLQQSGAELVRPGASVKISCKASGYTFTRYNMHWVKQTPRQGLEWIGTIYPGYGDTSYNQKFKGKATLTVDISSSTAYMQLTSLTSEDSAVYFCSREFADDYPIPPFDYWGQGTTLTVSS
VL: DVLMTQTPLSLPVSLGDQASISCRSSQNIVHSNGNTYLEWYLQKPGQSPKLLIYKVSNRFSGVPDRFSGSGSGTDFTLKISRVEAEDLGIYYCFQGSHVPYTFGGGTKLEIK
notes: Mouse hybridoma mAb

binding result [5]: binds | binding result [6]: binds | binding result [2]: binds
B6: Murine 2H9 (mouse anti-canine PD-1 monoclonal antibody) (antibody, V domains shown)
VH: B5 VH with V24A, V37I, D52A, N57D, T72A, S85T, F100Y, K115T
VL: B5 VL with K39R, N53H, D70G, Y94W
notes: Mouse hybridoma mAb purified on Protein G; also called mAb 2H9

From patent US20240084004A1 (INTERVET, published 2024)
